Reference: publication PMC11251186, “Higher-order structure and proteoforms of co-occurring C4b-binding protein assemblies in human serum” (The EMBO Journal, 2024)
Values joined by “and” are separate entries in the source; they are usually repeats but may differ in a detail not shown here. Equal values may be shown once.

T1: vitamin K-dependent protein S (ProS) (human, UniProt P07225 42-676, N-glycans at N499, N509, N530)
T1 construct: vitamin K-dependent protein S (ProS), human serum protein; GLA domain, four EGF-like domains (E1-E4), two laminin G-like domains (LG1-2); without signal peptide and propeptide; source: purified from pooled plasma of more than 16 healthy donors together with C4BP (bought: Complement Technology, Inc); endogenous, pooled healthy donor serum (SEC LC-MS)
T1 sequence (looked up): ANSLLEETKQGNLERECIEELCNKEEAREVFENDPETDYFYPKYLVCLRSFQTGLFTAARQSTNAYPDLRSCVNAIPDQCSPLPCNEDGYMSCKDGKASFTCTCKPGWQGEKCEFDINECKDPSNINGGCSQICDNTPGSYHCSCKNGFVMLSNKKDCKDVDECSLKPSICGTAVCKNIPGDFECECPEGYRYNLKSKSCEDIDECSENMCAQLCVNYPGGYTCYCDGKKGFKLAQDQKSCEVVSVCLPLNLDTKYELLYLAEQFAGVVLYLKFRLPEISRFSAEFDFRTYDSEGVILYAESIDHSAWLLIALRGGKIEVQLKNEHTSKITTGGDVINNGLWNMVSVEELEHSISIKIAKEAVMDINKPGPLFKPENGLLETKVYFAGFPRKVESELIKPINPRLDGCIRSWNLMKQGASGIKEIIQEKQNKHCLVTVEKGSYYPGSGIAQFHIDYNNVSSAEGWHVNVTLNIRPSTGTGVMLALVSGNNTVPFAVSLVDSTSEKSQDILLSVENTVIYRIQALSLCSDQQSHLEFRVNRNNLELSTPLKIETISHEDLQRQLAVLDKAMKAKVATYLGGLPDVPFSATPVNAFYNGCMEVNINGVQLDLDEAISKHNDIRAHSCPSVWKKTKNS

T2: C4b-binding protein beta chain (C4BPβ) (Homo sapiens (Human), UniProt P20851, N-glycans at N64, N71, N98, N117, N154)
T2 chain: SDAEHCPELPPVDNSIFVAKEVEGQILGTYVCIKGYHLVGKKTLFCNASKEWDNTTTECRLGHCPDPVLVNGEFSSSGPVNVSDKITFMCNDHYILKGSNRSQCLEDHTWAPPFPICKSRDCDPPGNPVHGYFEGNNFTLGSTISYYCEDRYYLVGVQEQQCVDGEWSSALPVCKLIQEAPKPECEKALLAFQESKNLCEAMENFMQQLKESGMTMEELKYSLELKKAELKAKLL

B1: C4b-binding protein beta chain (C4BPβ) (natural protein, human, UniProt P20851 18-252, looked up)
chain: T2 chain
modifications: N-glycans at N64, N71, N98, N117, N154
notes: three CCP domains; N-terminus S18 after the propeptide cleavage; Disulfide-linked to C4BPα in the assembly; also called β chain; source: endogenous, pooled healthy donor serum (SEC LC-MS)
B2: C4b-binding protein alpha chain (C4BPα) (natural protein, human, UniProt P04003 49-597, looked up)
chain: NCGPPPTLSFAAPMDITLTETRFKTGTTLKYTCLPGYVRSHSTQTLTCNSDGEWVYNTFCIYKRCRHPGELRNGQVEIKTDLSFGSQIEFSCSEGFFLIGSTTSRCEVQDRGVGWSHPLPQCEIVKCKPPPDIRNGRHSGEENFYAYGFSVTYSCDPRFSLLGHASISCTVENETIGVWRPSPPTCEKITCRKPDVSHGEMVSGFGPIYNYKDTIVFKCQKGFVLRGSSVIHCDADSKWNPSPPACEPNSCINLPDIPHASWETYPRPTKEDVYVVGTVLRYRCHPGYKPTTDEPTTVICQKNLRWTPYQGCEALCCPEPKLNNGEITQHRKSRPANHCVYFYGDEISFSCHETSRFSAICQGDGTWSPRTPSCGDICNFPPKIAHGHYKQSSSYSFFKEEIIYECDKGYILVGQAKLSCSYSHWSAPAPQCKALCRKPELVNGRLSVDKDQYVEPENVTIQCDSGYGVVGPQSITCSGNRTWYPEVPKCEWETPEGCEQVLTGKRLMQCLPNPEDVKMALEVYKLSLEIEQLELQRDSARQSTLDKEL
modifications: N-glycans at N221, N506, N528
notes: eight CCP domains and the C-terminal oligomerization core; without the signal peptide; Disulfide-linked to the other C4BPα chains and to C4BPβ in the assembly; also called α chain; source: endogenous, pooled healthy donor serum (SEC LC-MS)
B3: vitamin K-dependent protein S (ProS) (protein)
chain: T1 sequence (looked up)
modifications: N-glycans at N499, N509, N530

What was measured:
[1] = target: B2; assay: cross-linking; C4BP 0.5 g/l in PBS pH 7.4, 1 mM DSS or 5 mM DMTMM, 30 min, room temperature; SDS-PAGE bands digested with trypsin, LC-MS/MS; cross-links kept if found in two of three replicates; conditions: both partners purified
[2] = target: T1, vitamin K-dependent protein S (ProS); assay: as above; conditions: both partners purified
[3] = target: the molecule itself; assay: as above
[4] = target: B1; assay: native MS; Orbitrap charge detection MS (CDMS) of native C4BP, 1 M ammonium acetate pH 7.4, ~1 μM; conditions: both partners purified
[5] = target: T2, C4b-binding protein beta chain (C4BPβ); assay: native CDMS, mass photometry, XL-MS and HS-AFM of co-purified serum C4BP complex; C4BPβ present only disulfide-linked to C4BPα in the serum C4BP assembly (α7β1/α6β1), co-purified with ProS; the non-covalent complex dissociates at pH 2 or in urea

**Q.** Does B1 bind [1]?
**A.** Result: binds

**Q.** Does B1 bind [2]?
**A.** Result: binds

**Q.** Does B2 bind [3]?
**A.** Result: binds

**Q.** What about the “stoichiometry N” value [4] of the same binder?
**A.** The value was 7 C4BPα chains per C4BPβ chain and 6 C4BPα chains per C4BPβ chain.

**Q.** Does B3 bind [5]?
**A.** Result: binds
